The target of assay [1] is T1, CD155蛋白 on CHO-K1-CD155 cells (Homo sapiens (Human), UniProt P15151 21-417).
T1 construct: also called CHO-K1-CD155细胞
T1 sequence: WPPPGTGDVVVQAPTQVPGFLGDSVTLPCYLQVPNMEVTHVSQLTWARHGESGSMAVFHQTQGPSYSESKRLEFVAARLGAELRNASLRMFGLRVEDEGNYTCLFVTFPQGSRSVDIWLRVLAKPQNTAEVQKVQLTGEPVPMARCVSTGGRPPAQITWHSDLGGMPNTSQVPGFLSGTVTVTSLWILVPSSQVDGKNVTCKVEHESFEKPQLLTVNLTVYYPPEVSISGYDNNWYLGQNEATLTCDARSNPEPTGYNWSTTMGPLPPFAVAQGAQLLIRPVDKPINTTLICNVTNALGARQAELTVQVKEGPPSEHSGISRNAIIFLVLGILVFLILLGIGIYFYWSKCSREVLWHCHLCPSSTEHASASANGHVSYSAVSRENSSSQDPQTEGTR
The assay can be described thus: flow cytometry on CHO-K1-CD155 cells, Alexa-647 anti-human Fc secondary antibody.

In assay [2] the target is T2, CD155 on tumour cells (NCI-H1299, NCI-H358, HepG2) (UniProt P15151 21-417, limits assumed).
T2 construct: whole, on cells; also called 表达CD155的肺癌NCI-H1299细胞; NCI-H358细胞
T2 sequence (looked up): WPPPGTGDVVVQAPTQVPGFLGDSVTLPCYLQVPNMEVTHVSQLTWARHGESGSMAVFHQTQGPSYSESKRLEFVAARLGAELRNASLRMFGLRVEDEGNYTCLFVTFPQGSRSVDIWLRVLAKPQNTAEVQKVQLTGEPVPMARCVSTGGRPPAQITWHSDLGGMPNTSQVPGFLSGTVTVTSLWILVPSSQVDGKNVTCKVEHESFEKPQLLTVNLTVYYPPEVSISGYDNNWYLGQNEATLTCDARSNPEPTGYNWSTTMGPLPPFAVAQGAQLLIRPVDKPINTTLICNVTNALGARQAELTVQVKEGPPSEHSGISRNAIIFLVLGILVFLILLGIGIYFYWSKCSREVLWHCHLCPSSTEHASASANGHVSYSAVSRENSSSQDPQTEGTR
The assay can be described thus: flow cytometry on NCI-H1299 lung cancer cells, Alexa-647 anti-human Fc secondary antibody.

B1: 双特异抗体 CD3×TIGIT extra (重组双特异抗体, 实施例1) (bispecific antibody, IgG1)
chain 1: EVQLLESGGGLVQPGGSLKLSCAASGFTFNTYAMNWVRQAPGKGLEWVARIRSKYNNYATYYADSVKDRFTISRDDSKNTAYLQMNNLKTEDTAVYYCVRHGNFGNSYVSWFAYWGQGTLVTVSSGGGGSGGGGSGGGGSELVVTQEPSLTVSPGGTVTLTCRSSTGAVTTSNYANWVQQKPGQAPRGLIGGTNKRAPGTPARFSGSLLGGKAALTLSGVQPEDEAEYYCALWYSNLWVFGGGTKLTVLGGGGSPKSCDKTHTCPPCPAPEAAGGPSVFLFPPKPKDTLMISRTPEVTCVVVDVSHEDPEVKFNWYVDGVEVHNAKTKPREEQYNSTYRVVSVLTVLHQDWLNGKEYKCKVSNKALPAPIEKTISKAKGQPREPQVYTLPPSREEMTKNQVSLWCLVKGFYPSDIAVEWESNGQPENNYKTTPPVLDSDGSFFLYSKLTVDKSRWQQGNVFSCSVMHEALHNHYTQKSLSLSPGK
chain 2: MMTGTIETTGNISAEKGGSIILQCHLSSTTAQVTQVNWEQQDQLLAICNADLGWHISPSFKDRVAPGPGLGLTLQSLTVNDTGEYFCIYHTYPDGTYTGRIFLEVLESSVAEHGARFQIPGGGGSPKSCDKTHTCPPCPAPEAAGGPSVFLFPPKPKDTLMISRTPEVTCVVVDVSHEDPEVKFNWYVDGVEVHNAKTKPREEQYNSTYRVVSVLTVLHQDWLNGKEYKCKVSNKALPAPIEKTISKAKGQPREPQVYTLPPSREEMTKNQVSLSCAVKGFYPSDIAVEWESNGQPENNYKTTPPVLDSDGSFFLVSKLTVDKSRWQQGNVFSCSVMHEALHNHYTQKSLSLSPGK
notes: Two-chain heterodimer joined through knob-into-hole IgG1 Fc regions; also called 双特异性抗体; 重组抗体
With B1, the binding result in assay [1] and in assay [2] was “binds” throughout.
